Experiments:
[1] = target: recombinant chicken leptin binding domain (chLBD) (chicken); assay: affinity for chLBD (method not given; compared with the SPR value of WT human leptin)
[2] = target: long form of human leptin receptor (human) (UniProt P48357); assay: cell-based or functional assay
[3] = target: long form of human leptin receptor (human) (UniProt P48357); assay: radioreceptor assay, homogenate from 1.75x10^6 BAF/3 cells with human leptin receptor per tube
Target sequence in this assay (P48357 22-1165 limits assumed, form in doubt): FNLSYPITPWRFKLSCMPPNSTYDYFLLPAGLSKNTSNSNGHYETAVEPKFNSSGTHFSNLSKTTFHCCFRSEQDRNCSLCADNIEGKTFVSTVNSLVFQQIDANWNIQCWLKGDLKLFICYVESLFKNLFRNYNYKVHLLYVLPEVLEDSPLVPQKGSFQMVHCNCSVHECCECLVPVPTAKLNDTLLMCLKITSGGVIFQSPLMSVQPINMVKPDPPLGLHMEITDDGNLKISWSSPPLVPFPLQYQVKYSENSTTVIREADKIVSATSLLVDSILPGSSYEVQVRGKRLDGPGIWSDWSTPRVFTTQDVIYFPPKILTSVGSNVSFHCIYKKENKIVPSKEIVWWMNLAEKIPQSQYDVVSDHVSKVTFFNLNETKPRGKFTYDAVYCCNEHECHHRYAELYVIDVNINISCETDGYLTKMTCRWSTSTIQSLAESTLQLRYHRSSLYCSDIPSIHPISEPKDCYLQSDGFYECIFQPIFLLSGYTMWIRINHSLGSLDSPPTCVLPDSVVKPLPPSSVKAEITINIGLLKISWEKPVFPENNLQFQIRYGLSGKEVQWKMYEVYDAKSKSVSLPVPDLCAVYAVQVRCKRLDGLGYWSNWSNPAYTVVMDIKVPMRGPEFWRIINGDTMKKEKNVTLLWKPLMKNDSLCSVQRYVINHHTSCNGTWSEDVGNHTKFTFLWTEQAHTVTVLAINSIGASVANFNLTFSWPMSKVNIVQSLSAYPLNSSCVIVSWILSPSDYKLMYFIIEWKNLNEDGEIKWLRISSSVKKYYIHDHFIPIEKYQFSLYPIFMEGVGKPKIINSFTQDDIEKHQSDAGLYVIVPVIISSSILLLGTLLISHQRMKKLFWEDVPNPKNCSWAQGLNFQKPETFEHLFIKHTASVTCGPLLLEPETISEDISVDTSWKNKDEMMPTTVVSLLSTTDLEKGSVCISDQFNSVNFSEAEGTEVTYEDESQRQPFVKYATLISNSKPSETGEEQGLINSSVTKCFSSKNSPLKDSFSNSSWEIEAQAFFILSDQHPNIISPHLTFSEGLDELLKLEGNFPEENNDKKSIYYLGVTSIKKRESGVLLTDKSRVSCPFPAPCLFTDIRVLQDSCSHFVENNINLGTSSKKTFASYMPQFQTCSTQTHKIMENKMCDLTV

[4] = target: long form of human leptin receptor (human) (UniProt P48357); assay: radioreceptor competition assay against iodinated leptin, homogenate of BAF/3 cells with long form of human leptin receptor, average of two experiments
Target sequence in this assay (P48357 22-1165 limits assumed, form in doubt): as above

[5] = target: recombinant chicken leptin binding domain (chLBD) (chicken); assay: SPR (Biacore 3000), leptin amine-coupled to CM5 chip, soluble chLBD as analyte, 25 C, 1:1 Langmuir fit, mean of 2 experiments

Row | Kd [1] [nM] | IC50 for inhibition in the Baf/3 bioassay [2] [nM] | IC50 for inhibition in the Baf/3 bioassay, fold against L39A/D40A/F41A or L39A/D40A/F41A/I42A [2] [fold] | specific binding [3] [%] | IC50 [4] [nM] | EC50 in Baf/3 bioassay (proliferation of BAF/3 cells transfected with the long form of human leptin receptor, MTT) [2] [nM] | Kd [5] [nM] | koff [5] [s⁻¹] | kon [5] [M⁻¹ s⁻¹] | Substance
1 | 26.9 | 14.3 | – | – | – | – | – | – | – | human leptin L39A/D40A/F41A/I42A/S120A/T121A mutant (from UniProt P41159 22-167) (ligand)
2 | 29.5 | 165 | 150 | – | – | – | – | – | – | human leptin S120A/T121A mutant (from UniProt P41159 22-167) (ligand)
3 | – | – | – | 6 to 7 | 5.33 | 0.022 | 28.8 | 0.0043 | 149000 | wild-type (WT) human leptin, recombinant (from UniProt P41159 22-167) (ligand)
4 | – | – | – | – | 1.47 | 0.037 | 22.8 | 0.0037 | 162000 | wild-type (WT) ovine leptin, recombinant (from UniProt Q28603 1-146) (ligand)
